PMC7060279

Legend:
integrin αvβ3 protein [1] = target: integrin αvβ3 protein (UniProt P06756); experiment: SPR; Biacore T-200; TLR2, TLR4 and integrin αvβ3 immobilised on a CM5 chip by amine coupling; CCN1 as analyte at 25 µl per min, 25 °C, phosphate buffer with 350 mM NaCl, 0.5 mM CaCl2, 0.5 mM MgCl2, 10 µg per ml BSA; global fit to 1:1 Langmuir model, KD = kd/ka
integrin αvβ3 protein [2] = target: integrin αvβ3 protein (UniProt P06756)

integrin αvβ3 protein, sequence (P06756 31-1048, chain 1 of 2): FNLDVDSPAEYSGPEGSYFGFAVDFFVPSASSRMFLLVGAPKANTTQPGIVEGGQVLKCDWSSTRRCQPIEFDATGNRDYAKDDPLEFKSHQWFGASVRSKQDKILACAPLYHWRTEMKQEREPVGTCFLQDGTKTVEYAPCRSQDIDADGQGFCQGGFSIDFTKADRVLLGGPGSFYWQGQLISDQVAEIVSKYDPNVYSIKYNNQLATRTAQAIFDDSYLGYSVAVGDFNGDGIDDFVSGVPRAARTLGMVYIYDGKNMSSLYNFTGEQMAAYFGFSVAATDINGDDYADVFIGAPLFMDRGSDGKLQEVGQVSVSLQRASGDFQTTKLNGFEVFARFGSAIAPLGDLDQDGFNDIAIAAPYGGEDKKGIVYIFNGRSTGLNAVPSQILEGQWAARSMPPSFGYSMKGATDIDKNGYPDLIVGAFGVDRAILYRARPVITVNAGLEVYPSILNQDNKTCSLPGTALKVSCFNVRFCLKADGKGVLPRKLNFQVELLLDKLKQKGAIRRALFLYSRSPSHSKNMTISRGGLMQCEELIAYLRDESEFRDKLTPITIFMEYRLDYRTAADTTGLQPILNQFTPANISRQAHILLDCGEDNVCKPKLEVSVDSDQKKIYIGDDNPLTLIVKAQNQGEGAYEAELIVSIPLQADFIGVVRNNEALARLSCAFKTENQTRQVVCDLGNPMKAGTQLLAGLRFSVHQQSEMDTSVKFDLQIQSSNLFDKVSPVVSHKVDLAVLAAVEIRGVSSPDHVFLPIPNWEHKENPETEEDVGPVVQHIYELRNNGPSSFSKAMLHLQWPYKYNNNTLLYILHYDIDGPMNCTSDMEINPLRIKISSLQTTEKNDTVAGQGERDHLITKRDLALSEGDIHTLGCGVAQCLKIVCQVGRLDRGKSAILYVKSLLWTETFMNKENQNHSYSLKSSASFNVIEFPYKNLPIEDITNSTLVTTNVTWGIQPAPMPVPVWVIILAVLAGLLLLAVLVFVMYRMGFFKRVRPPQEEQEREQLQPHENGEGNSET
integrin αvβ3 protein, sequence (P05106 27-718, chain 2 of 2, further chain): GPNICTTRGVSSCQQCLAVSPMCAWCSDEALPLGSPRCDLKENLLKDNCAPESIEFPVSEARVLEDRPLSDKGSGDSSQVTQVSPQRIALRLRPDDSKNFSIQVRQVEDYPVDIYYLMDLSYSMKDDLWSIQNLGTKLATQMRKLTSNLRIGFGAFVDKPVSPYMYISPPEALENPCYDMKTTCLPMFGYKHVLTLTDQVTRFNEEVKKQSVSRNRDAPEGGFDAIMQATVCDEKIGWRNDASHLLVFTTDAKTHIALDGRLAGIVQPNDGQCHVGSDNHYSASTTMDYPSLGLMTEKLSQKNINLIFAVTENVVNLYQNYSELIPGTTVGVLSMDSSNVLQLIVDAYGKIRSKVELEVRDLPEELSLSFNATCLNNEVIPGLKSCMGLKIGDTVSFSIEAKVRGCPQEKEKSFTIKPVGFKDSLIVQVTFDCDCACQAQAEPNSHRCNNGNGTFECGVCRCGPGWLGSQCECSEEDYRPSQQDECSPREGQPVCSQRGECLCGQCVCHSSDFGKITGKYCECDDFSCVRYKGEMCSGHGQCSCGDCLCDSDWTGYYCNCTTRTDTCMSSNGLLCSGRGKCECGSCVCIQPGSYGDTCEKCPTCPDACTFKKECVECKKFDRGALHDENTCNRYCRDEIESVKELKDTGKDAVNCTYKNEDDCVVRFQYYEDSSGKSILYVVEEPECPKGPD

Kd (integrin αvβ3 protein [1]): 202 nM | phagocytosis of S. aureus bioparticles by BMDMs pretreated with CCN1 (2 µg per ml); obliterated by cilengitide (1 µM); also enhanced in BM-PMNs and THP.1 macrophages (integrin αvβ3 protein [2]): 5 fold
B1: CCN1-WT (recombinant matricellular protein CCN1) (natural protein)
chain: TCPAACHCPLEAPKCAPGVGLVRDGCGCCKVCAKQLNEDCSKTQPCDHTKGLECNFGASSTALKGICRAQSEGRPCEYNSRIYQNGESFQPNCKHQCTCIDGAVGCIPLCPQELSLPNLGCPNPRLVKVSGQCCEEWVCDEDSIKDSLDDQDDLLGLDASEVELTRNNELIAIGKGSSLKRLPVFGTEPRVLFNPLHAHGQKCIVQTTSWSQCSKSCGTGISTRVTNDNPECRLVKETRICEVRPCGQPVYSSLKKGKKCSKTKKSPEPVRFTYAGCSSVKKYRPKYCGSCVDGRCCTPLQTRTVKMRFRCEDGEMFSKNVMMIQSCKCNYNCPHPNEASFRLYSLFNDIHKFRD
